Data as given in patent US20220356470.

How the values were obtained:
[1] = tested on: Type I-C Cascade with Cas3-Cas8 tether (Pseudomonas aeruginosa); assay: cell_activity; settings: smaller deletions than untethered; PAM not stated
[2] = tested on: Type I-C Cascade-Cas3 D370A (helicase mutant) Cas3 D370A (Pseudomonas aeruginosa); assay: cell_activity; settings: smaller deletions; PAM not stated

In the case of “crRNA targeting 200 bp upstream of phzM ; site 200 bp upstream of phzM”, the activity (% survivors with deletion (17/20)) [1] is reported as 85 and the activity (% survivors edited) [2] is reported as 25.
